Assay results reported in US5882914, “Nucleic acids encoding the hypoxia inducible factor-1” (The Johns Hopkins University School of Medicine).

B1: hENO1 5'-FS (dsDNA)
DNA 1: GGCCACGTGCGCCGCCTGCGCCTGCG
DNA 2: CGCAGGCGCAGGCGGCGCACGTGGCC
B2: hPGK1 5'-FS (dsDNA)
DNA 1: GTGAGACGTGCGGCTTCCGTTTG
DNA 2: CAAACGGAAGCCGCACGTCTCAC
B3: hEPO 3'-FS (dsDNA)
DNA 1: GCCCTACGTGCTGTCTCACACAGCCTGTCTGA
DNA 2: TCAGACAGGCTGTGTGAGACAGCACGTAGGGC
B4: W18 (dsDNA)
DNA 1: GATCGCCCTACGTGCTGTCTCA
DNA 2: TGAGACAGCACGTAGGGCGATC
B5: hEPO 5'-FS (dsDNA)
DNA 1: GGGGCTGCTGCAGACGTGCGTGTG
DNA 2: CACACGCACGTCTGCAGCAGCCCC
B6: mPFKL IVS-1 (dsDNA)
DNA 1: CCGGGTAGCTGGCGTACGTGCTGCAG
DNA 2: CTGCAGCACGTACGCCAGCTACCCGG
B7: mLDHA 5'-FS (dsDNA)
DNA 1: GTGGGAGCCCAGCGGACGTGCGGGAA
DNA 2: TTCCCGCACGTCCGCTGGGCTCCCAC
B8: hALDA IVS-4 (dsDNA)
DNA 1: CTTCACGTGCGGGGACCAGGGACCGT
DNA 2: ACGGTCCCTGGTCCCCGCACGTGAAG
B9: M18 (dsDNA)
DNA 1: GATCGCCCTAAAAGCTGTCTCA
DNA 2: TGAGACAGCTTTTAGGGCGATC
B10: hPGK1 5'-UT (dsDNA)
DNA 1: CTGCCGACGTGCGCTCCGGAG
DNA 2: CTCCGGAGCGCACGTCGGCAG

Assays:
[1] = biological target: T1, HIF-1 (HIF-1alpha/HIF-1beta ARNT heterodimer) (Homo sapiens, UniProt Q16665;P27540 Q16665:1-826,P27540:2-789); assay: EMSA; similar to W18; competed by W18 not M18; printed CADGTGCG in table; settings: tags: none; 5' GATC overhang added
T1 sequence (Q16665 whole entry, chain 1 of 2): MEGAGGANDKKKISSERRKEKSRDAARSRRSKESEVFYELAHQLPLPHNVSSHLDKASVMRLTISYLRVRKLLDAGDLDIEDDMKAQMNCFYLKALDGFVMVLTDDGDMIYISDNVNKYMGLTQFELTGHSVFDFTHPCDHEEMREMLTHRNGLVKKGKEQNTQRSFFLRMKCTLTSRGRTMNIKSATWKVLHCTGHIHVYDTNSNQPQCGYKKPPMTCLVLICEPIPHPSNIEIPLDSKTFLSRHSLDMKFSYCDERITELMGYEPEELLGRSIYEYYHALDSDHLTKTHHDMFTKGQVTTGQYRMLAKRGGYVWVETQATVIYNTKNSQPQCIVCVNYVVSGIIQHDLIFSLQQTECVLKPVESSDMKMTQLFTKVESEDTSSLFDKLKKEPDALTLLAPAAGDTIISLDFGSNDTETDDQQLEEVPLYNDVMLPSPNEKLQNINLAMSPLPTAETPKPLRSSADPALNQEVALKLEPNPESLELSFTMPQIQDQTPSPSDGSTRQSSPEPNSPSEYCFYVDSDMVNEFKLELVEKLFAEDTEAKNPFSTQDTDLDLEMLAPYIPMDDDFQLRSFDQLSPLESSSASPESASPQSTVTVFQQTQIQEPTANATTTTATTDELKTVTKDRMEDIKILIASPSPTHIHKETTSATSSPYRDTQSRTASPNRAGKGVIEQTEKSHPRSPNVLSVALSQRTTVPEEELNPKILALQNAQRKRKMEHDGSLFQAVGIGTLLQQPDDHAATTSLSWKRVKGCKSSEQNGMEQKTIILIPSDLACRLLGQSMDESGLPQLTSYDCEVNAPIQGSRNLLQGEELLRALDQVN
T1 sequence (P27540 2-789, chain 2 of 2): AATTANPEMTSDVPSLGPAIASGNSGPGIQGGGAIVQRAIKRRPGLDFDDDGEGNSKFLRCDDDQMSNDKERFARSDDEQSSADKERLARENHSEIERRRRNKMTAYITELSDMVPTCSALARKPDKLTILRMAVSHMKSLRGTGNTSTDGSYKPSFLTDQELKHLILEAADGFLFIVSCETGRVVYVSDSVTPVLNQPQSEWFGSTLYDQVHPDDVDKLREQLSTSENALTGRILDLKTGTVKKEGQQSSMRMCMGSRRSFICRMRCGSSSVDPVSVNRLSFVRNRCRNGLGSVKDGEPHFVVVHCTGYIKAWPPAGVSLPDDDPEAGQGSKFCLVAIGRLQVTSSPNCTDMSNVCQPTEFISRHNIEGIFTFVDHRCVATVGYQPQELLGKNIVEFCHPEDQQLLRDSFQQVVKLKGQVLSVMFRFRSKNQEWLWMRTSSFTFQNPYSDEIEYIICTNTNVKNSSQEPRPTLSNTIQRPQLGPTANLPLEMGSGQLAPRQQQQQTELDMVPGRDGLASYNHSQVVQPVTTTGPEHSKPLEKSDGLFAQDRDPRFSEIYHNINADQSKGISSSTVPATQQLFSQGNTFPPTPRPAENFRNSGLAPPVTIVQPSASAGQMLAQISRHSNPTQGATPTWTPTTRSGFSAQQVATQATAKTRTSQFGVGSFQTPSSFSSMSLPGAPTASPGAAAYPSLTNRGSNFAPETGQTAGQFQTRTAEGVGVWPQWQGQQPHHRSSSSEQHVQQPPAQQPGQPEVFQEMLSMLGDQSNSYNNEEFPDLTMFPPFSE
From the text: (§1) Double-stranded oligonucleotides were synthesized according to the sequences shown in Table 2 except that each oligonucleotide contained at its 5'-end the sequence 5'-GATC-3', which formed a single-stranded 5' overhang when complementary oligonucleotides were annealed. The sense strand sequence of the W18 and M18 oligonucleotides was as given above. HIF-1 was partially purified from 50 liters of CoCl_2-treated HeLa cells by crude nuclear extract preparation, DEAE-Sepharose chromatography, MonoQ fast protein liquid chromatography, and DNA affinity chromatography. Incubations with crude nuclear extracts and partially purified HIF-I contained 100 and 1 ng of denatured calf thymus DNA, respectively. Competition experiments were performed with 5 ng of unlabeled W18 or MI8 oligonucleotide.
(§2) EMSA was also performed with a preparation of HIF-1 from CoCl_2-treated HeLa cells that was purified approximately 600-fold by DEAE-cellulose, MonoQ, and DNA affinity chromatography. Each probe bound HIF-1 in a manner that was qualitatively and quantitatively similar to the complex formed with W18. The binding of HIF-1 to these probes was sequence-specific as it could be competed by an excess of unlabeled W18 but not by mutant oligonucleotide M18, containing a 3-nucleotide substitution previously shown to eliminate HIF-1 binding and hypoxia-inducible enhancer function. […]

[2] = biological target: T1, HIF-1 (HIF-1alpha/HIF-1beta ARNT …); assay: EMSA; similar to W18; competed by W18 not M18; settings: tags: none; 5' GATC overhang added
Method: as §1, with “The” for “Double-stranded oligonucleotides were synthesized according to the sequences shown in Table 2 except that each oligonucleotide contained at its 5'-end the sequence 5'-GATC-3', which formed a single-stranded 5' overhang when complementary oligonucleotides were annealed. The”
EMSA was also performed with a preparation of HIF-1 from CoCl_2-treated HeLa cells that was purified approximately 600-fold by DEAE-cellulose, MonoQ, and DNA affinity chromatography. Each probe bound HIF-1 in a manner that was qualitatively and quantitatively similar to the complex formed with W18. The binding of HIF-1 to these probes was sequence-specific as it could be competed by an excess of unlabeled W18 but not by mutant oligonucleotide M18, containing a 3-nucleotide substitution previously shown to eliminate HIF-1 binding and hypoxia-inducible enhancer function. Similar results were obtained when competition experiments involving W18 and M18 were performed with crude nuclear extract from hypoxic Hep3B cells. […] Given the biased method of ascertainment, it is possible that HIF-1 may recognize other sequences not represented by this consensus. In addition to the 6 HIF-1 sites from glycolytic genes, the sequence 5'-CACGTGCT-3' (SEQ ID NO:34) was also present in the hENO1 5'-FS at -786 to -793 (Gialongo et al. (1990) Eur. J. Biochem. 190:567–573) but was not tested for HIF-1 binding. Thus, a total of 7 probable HIF-1 sites were identified in 20.7 kb of nucleotide sequence reported to GenBank for these 5 glycolytic genes. In contrast, no sequences matching the consensus HIF-1 site were identified on either DNA strand within a total of 43.5 kb, comprising the nucleotide sequences of 5 randomly chosen genes, AFP, BUP4, CREB, DHFR, and EPOR (Gibbs et al. (1987) Biochemistry 26;1332–1343; Kurihara et al. (1993) Biochem.

[3] = biological target: T1, HIF-1 (HIF-1alpha/HIF-1beta ARNT …); assay: EMSA; listed among 8 oligonucleotides shown to bind HIF-1 specifically; settings: tags: none; 5' GATC overhang added
From the text: as §1, §2

[4] = biological target: T1, HIF-1 (HIF-1alpha/HIF-1beta ARNT …); assay: EMSA; buffer Z-100; also UV cross-linking of both subunits, competed by W18 not M18; settings: tags: none; 5' GATC overhang
Method: (§3) Figure 3A: FIG. 3A is an autoradiograph showing gel shift assay analysis of column fractions for HIF-1 DNA binding activity. Nuclear extracts were fractionated by DEAE-Sepharose chromatography, and fractions containing HIF-1 activity were applied to a W18 DNA affinity column. 5 ug of protein were incubated with 0.1 ug of calf thymus DNA for gel shift analysis of crude nuclear extract (Crude NE, lane 1) and HIF-1 active fractions from DEAE-Sepharose columns (DEAE, lane 2). For fractions from the W18 column (lanes 3–13), 1 ul aliquots were incubated with 5 ng of calf thymus DNA. The positions of the two HIF-1 bands, constitutive activity (C), nonspecific activity (NS), and free probe (F) are indicated. FT, flowthrough, 0.25M, 0.5M, 1M, and 2M are fractions eluted with indicated concentration of KCl in buffer Z. Figure 3B: FIG. 3B is an autoradiograph showing sequence-specific DNA binding of the partially purified fractions described in the legend to FIG. 3A. 5 ug aliquots of fractions from the DEAE-Sepharose column were incubated with W18 probe in the presence of no competitor (lane 1), 10-fold (lanes 2 and 5), 50-fold (lanes 3 and 6), or 250-fold (lanes 4 and 7) molar excess of unlabeled W18 (W, lanes 2–4) or M18 (M, lanes 5–7) oligonucleotide.
UV Cross-Linking Analysis. […]

[5] = biological target: T1, HIF-1 (HIF-1alpha/HIF-1beta ARNT …); assay: competition; 250-fold excess M18 does not compete; HIF-1 in M18 column flowthrough; settings: tags: none; 5' GATC overhang
Method: as §3

Row | Binder | binding result [2] | also measured
1 | B1 |  | binding result [1]: binds
2 | B2 | binds | 
3 | B3 |  | binding result [3]: binds
4 | B4 |  | binding result [4]: binds
5 | B5 | binds | 
6 | B6 | binds | 
7 | B7 | binds | 
8 | B8 | binds | 
9 | B9 |  | binding result [5]: no binding
10 | B10 | binds | 
